Where a chain is given by its changes, count along the chain named. Like-named read-outs stand apart in the source and are kept apart here.
Legend:
[1] = target: T1, soluble mouse IL-31 receptor (mouse, UniProt Q8K5B1 19-499); test: SPR Biacore T100, antibody on protein A/G chip, soluble mouse IL-31 receptor analyte, pH 7.4, 25 C
T1 sequence (looked up): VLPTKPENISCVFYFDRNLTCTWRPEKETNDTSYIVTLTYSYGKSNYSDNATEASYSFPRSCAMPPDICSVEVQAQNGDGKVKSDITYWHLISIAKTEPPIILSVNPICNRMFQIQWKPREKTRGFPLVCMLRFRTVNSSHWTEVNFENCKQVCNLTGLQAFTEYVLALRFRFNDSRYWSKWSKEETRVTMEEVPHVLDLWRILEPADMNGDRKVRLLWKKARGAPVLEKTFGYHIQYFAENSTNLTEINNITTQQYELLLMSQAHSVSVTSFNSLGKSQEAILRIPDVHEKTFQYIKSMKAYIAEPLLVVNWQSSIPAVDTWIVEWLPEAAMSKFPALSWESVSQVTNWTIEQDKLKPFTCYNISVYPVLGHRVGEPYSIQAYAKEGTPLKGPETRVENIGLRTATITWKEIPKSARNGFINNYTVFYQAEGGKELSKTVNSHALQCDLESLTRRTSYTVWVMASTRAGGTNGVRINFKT
Protocol: (§1) Kinetic analysis of antigen-antibody reactions at pH 5.5 and pH 7.4 was carried out using a Biacore T100™ surface plasmon resonance system (GE Healthcare) for the two types of antibodies prepared as mentioned above: Anti-IL31R wild type and Anti-IL31R clone 1 (buffer: DPBS(−) (pH 7.4 or pH 5.5), 150 mM NaCl, 0.01% TWEEN® 20 (polyoxyethelene sorbitan monolaurate), 0.02% NaN₃). The antibodies were bound to a sensor chip on which recomb-protein A/G (Pierce) was immobilized by amine coupling, and then the soluble mouse IL-31 receptor (prepared according to the method described in WO 2007/142325) adjusted to an appropriate concentration was injected therein as an analyte. All the measurements were carried out at 25° C. Association rate constants kₐ (1/Ms) and dissociation rate constants kd (1/s) were calculated using Biacore T100™ Evaluation Software (GE Healthcare), and dissociation constants KD (M) were calculated based on those values (Table 16). Furthermore, the ratio of affinity at pH 5.5 and pH 7.4 was calculated for each clone to evaluate the pH-dependent binding.

[2] = target: T1, soluble mouse IL-31 receptor; test: SPR Biacore T100, antibody on protein A/G chip, soluble mouse IL-31 receptor analyte, 25 C, ratio of pH 5.5 to pH 7.4
Protocol: as §1

[3] = target: T2, recombinant soluble human IL-6 receptor (SR344) (human, UniProt P08887 20-344, biotinylated (sites not given) where immobilized via streptavidin or used in phage ELISA); test: SPR Biacore T100, biotinylated SR344 on streptavidin chip (model of membrane-type IL-6 receptor), antibody as analyte, bound at pH 7.4, dissociation at pH 5.8, 37 C
T2 construct: also called soluble IL-6 receptor; membrane-type IL-6 receptor (when biotinylated and immobilized on the chip)
T2 sequence (looked up): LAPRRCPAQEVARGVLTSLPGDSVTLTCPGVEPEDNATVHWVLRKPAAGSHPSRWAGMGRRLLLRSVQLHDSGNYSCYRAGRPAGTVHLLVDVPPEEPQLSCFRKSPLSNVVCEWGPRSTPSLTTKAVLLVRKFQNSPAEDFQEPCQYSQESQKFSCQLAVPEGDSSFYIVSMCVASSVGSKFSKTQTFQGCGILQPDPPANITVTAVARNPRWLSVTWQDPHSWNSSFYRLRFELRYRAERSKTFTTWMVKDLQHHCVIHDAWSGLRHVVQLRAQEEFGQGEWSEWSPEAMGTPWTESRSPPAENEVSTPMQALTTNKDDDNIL
Protocol: (§2) Binding to the membrane-type IL-6 receptor was evaluated by evaluating binding to the IL-6 receptor immobilized on a sensor chip. SR344 was biotinylated in accordance with a method known among persons with ordinary skill in the art, and the biotinylated SR344 was immobilized on the sensor chip via streptavidin using the affinity between streptavidin and biotin. All the measurements were carried out at 37° C. The mobile phase buffer was 10 mM MES (pH 5.8), 150 mM NaCl and 0.05% TWEEN® 20 (polyoxyethelene sorbitan monolaurate).
(§3) The pH-dependently-binding clones were injected under the condition of pH 7.4 to allow them to bind to SR344, and then, the pH-dependent dissociation of each clone at the pH of the mobile phase, pH 5.8, was observed. The results are shown in FIG. 21 (results for Fv1-M71, Fv1-M73, Fv3-M71, and Fv3-M73 are shown in FIG. 21, while results for other clones are shown in FIGS. 17 and 19). Analyses were carried out in the same manner as in Example 10 and the pH dependencies of the dissociation rate constants of all of the eleven types of clones are shown in Table 12.

[4] = target: T2, recombinant soluble human IL-6 receptor …; test: SPR Biacore T100, antibody captured by anti-IgG gamma chain F(ab)2, SR344 analyte, pH 7.4, 37 C
Protocol: (§4) Kinetic analyses of antigen-antibody reactions at pH 7.4 were carried out on the four types of antibodies, i.e., the humanized PM1 antibody (wild type: WT), and […], H3pI/L73-IgG1, Fv2-IgG1, and Fv4-IgG1 constructed in Examples 2 and 10, by using a Biacore T100™ surface plasmon resonance system (GE Healthcare) (buffer: 10 mM MES (pH 7.4), 150 mM NaCl, 0.05% TWEEN® 20 (polyoxyethelene sorbitan monolaurate)). Each antibody was bound on a sensor chip on which an anti-IgG γ chain specific F(ab)₂ (Pierce) was immobilized by amine coupling, and then, SR344 adjusted to a concentration of 9.8 to 40 nM was injected thereto as an analyte. The association to and dissociation from SR344 were observed on a real-time basis for the pH-dependent-binding clones. All the measurements were carried out at 37° C. Association rate constants kₐ (1/Ms) and dissociation rate constants kd (1/s) were calculated using Biacore T100™ Evaluation Software (GE Healthcare), and dissociation constants KD (M) were calculated on the basis of those values (Table 7).

[5] = target: T2, recombinant soluble human IL-6 receptor …; test: as above; remark: listed apart in the source
Protocol: as §4
The association to and dissociation from SR344 were observed on a real-time basis using the same method as Example 10 for the eleven types of antibodies, humanized PM1 antibody (wild type: WT) and H3pI/L73-IgG1, Fv1-M71, Fv1-M73, Fv2-IgG1, Fv3-M71, Fv3-M73, Fv4-IgG1, Fv4-IgG2, Fv4-M58, and Fv4-M73, constructed as described above. The association rate constants kₐ (1/Ms) and dissociation rate constants kd. (1/s) were calculated by analysis in the same manner, and the dissociation constants KD (M) were calculated on the basis of those values (Table 11).

[6] = target: T2, recombinant soluble human IL-6 receptor …; test: SPR Biacore T100, biotinylated SR344 on streptavidin chip (model of membrane-type IL-6 receptor), antibody 0.25 ug/mL as analyte, bound at pH 7.4, dissociation at pH 5.8, 37 C
Protocol: as §2, §3

[7] = target: T2, recombinant soluble human IL-6 receptor …; test: SPR Biacore T100, biotinylated SR344 on streptavidin chip (model of membrane-type IL-6 receptor), antibody 0.25 ug/mL as analyte, 37 C
Protocol: as §2, §3

[8] = target: T2, recombinant soluble human IL-6 receptor …; test: SPR Biacore T100, biotinylated SR344 on streptavidin chip (model of membrane-type IL-6 receptor), antibody as analyte, 37 C
Protocol: as §2, §3

[9] = target: T2, recombinant soluble human IL-6 receptor …; test: SPR Biacore T100, biotinylated SR344 on streptavidin chip (model of membrane-type IL-6 receptor), antibody as analyte, bound at pH 7.4, dissociation at pH 7.4, 37 C
Protocol: as §2, §3

[10] = target: T2, recombinant soluble human IL-6 receptor …; test: SPR Biacore T100, biotinylated SR344 on streptavidin chip (model of membrane-type IL-6 receptor), antibody 0.25 ug/mL as analyte, bound at pH 7.4, dissociation at pH 7.4, 37 C
human IL-6 (Toray) [11] = target: T3, human IL-6 (Toray) (human, UniProt P05231 30-212); test: SPR Biacore T100, antibody on protein A/G chip, human IL-6 analyte, 37 C, ratio of pH 5.5 to pH 7.4
T3 construct: also called human interleukin-6
Protocol: (§5) Kinetic analysis of antigen-antibody reactions at pH 5.5 and pH 7.4 was carried out using a Biacore T100™ surface plasmon resonance system (GE Healthcare) for the three types of antibodies prepared as mentioned above: Anti-IL6 wild type, Anti-IL6 clone 1, and Anti-IL-6 clone 2 (buffer: DPBS(−) (pH 7.4 or pH 5.5), 150 mM NaCl). The antibodies were bound to a sensor chip on which recomb-protein A/G (Pierce) was immobilized by amine coupling, and then human IL-6 (Toray) adjusted to an appropriate concentration was injected on the chip as an analyte. All the measurements were carried out at 37° C. Association rate constants kₐ (1/Ms) and dissociation rate constants kd (1/s) were calculated using Biacore T100™ Evaluation Software (GE Healthcare), and dissociation constants KD (M) were calculated based on those values (Table 14). Furthermore, the ratio of affinity at pH 5.5 and pH 7.4 was calculated for each clone to evaluate the pH-dependent binding.

human IL-6 (Toray) [12] = target: T3, human IL-6 (Toray); test: SPR Biacore T100, antibody on protein A/G chip, human IL-6 analyte, pH 5.5, 37 C
Protocol: as §5

human IL-6 (Toray) [13] = target: T3, human IL-6 (Toray); test: SPR Biacore T100, antibody on protein A/G chip, human IL-6 analyte, pH 7.4, 37 C
Protocol: as §5

human IL-6 (Toray) [14] = target: T3, human IL-6 (Toray); test: SPR Biacore T100, antibody on protein A/G chip, human IL-6 analyte, 37 C
Protocol: as §5

B1: Anti-IL31R wild type (antibody, human IgG1, lambda, V domains shown)
VH: not shown
VL: LPVLTQPPSVSVAPGQTARITCGGNNIGSKTVYWYQQEPGQAPVLVVYDDTDRPAGIPERFSGANSGNTATLTISRVEAGDEADYYCQVWDSSTDHGVFGGGTKLTVLG
notes: Antibody of WO 2007/142325, rebuilt and tested here; also called anti-IL-31 receptor antibody including the H chain (WT) and L chain (WT)
Kd [1]: 23 nM | koff [1]: 0.0034 s⁻¹ | kon [1]: 140000 M⁻¹ s⁻¹ | KD (pH 5.5)/KD (pH 7.4) [2]: 3.2

B2: Fv2-IgG1 (antibody, V domains shown)
VH: QVQLQESGPGLVKPSETLSLTCAVSGYSISHDHAWSWVRQPPGEGLEWIGHISYSGITNYNPHLQDRVTISRDTSKNQFSLKLSSVTAADTAAYYCARFLARITAHDHWGEGTLVTVSS
VL: DIQMTQSPSSLSASVGDSVTITCQASQDISSHLNWYQQKPGKAPELLIYYGSHLHSGVPSRFSGSGSGTDFTFTISSLEAEDAATYYCGQGNRLPYTFGQGTKVEIE
notes: VH1-IgG1 as H chain and L82 as L chain
koff [3]: 0.0024 s⁻¹ | Kd [4]: 2 nM | koff [4]: 0.00077 s⁻¹ | kon [4]: 390000 M⁻¹ s⁻¹ | Kd [5]: 2 nM | koff [5]: 0.00077 s⁻¹ | kon [5]: 390000 M⁻¹ s⁻¹ | koff [6]: 0.0024 s⁻¹ | kd (pH 5.8)/kd (pH 7.4) [7]: 7.18 | kd (pH 5.8)/kd (pH 7.4) [8]: 7.18 | koff [9]: 0.00034 s⁻¹ | koff [10]: 0.00034 s⁻¹

B3: Anti-IL6 wild type (antibody, human IgG1, kappa, V domains shown)
VH: EVQLVESGGKLLKPGGSLKLSCAASGFTFSSFAMSWFRQSPEKRLEWVAEISSGGSYTYYPDTVTGRFTISRDNAKNTLYLEMSSLRSEDTAMYYCARGLWGYYALDYWGQGTSVTVSS
VL: QIVLIQSPAIMSASPGEKVTMTCSASSSVSYMYWYQQKPGSSPRLLIYDTSNLASGVPVRFSGSGSGTSYSLTISRMEAEDAATYYCQQWSGYPYTFGGGTKLEIKR
notes: Antibody of WO 2004/039826, rebuilt and tested here; also called anti-IL-6 antibody including the H chain (WT) and L chain (WT)
KD (pH 5.5)/KD (pH 7.4) (human IL-6 (Toray) [11]): 0.8 | Kd (human IL-6 (Toray) [12]): 0.0161 nM | koff (human IL-6 (Toray) [12]): 0.000245 s⁻¹ | kon (human IL-6 (Toray) [12]): 1.52e+07 M⁻¹ s⁻¹ | Kd (human IL-6 (Toray) [13]): 0.0191 nM | koff (human IL-6 (Toray) [13]): 0.000391 s⁻¹ | kon (human IL-6 (Toray) [13]): 2.05e+07 M⁻¹ s⁻¹

B4: Anti-IL-6 clone 2 (antibody, human IgG1, kappa, V domains shown)
VH: B3 VH with F32H, Y60H, D62H, Y103H
VL: B3 VL with N52H, L53H, Q89H, Y93H
notes: H chain (c1) / L chain (c2)
KD (pH 5.5)/KD (pH 7.4) (human IL-6 (Toray) [11]): 13.5 | Kd (human IL-6 (Toray) [12]): 3.98 nM | koff (human IL-6 (Toray) [12]): 0.011 s⁻¹ | kon (human IL-6 (Toray) [12]): 2.76e+06 M⁻¹ s⁻¹ | Kd (human IL-6 (Toray) [13]): 0.294 nM | koff (human IL-6 (Toray) [13]): 0.00263 s⁻¹ | kon (human IL-6 (Toray) [13]): 8.96e+06 M⁻¹ s⁻¹ | pH-dependent binding ability relative to WT (human IL-6 (Toray) [14]): > 10 fold

B5: Anti-IL6 clone 1 (antibody, human IgG1, kappa, V domains shown)
VH: B3 VH with F32H, Y60H, D62H, Y103H
VL: B3 VL with L53H, Q89H, Y93H
notes: H chain (c1) / L chain (c1)
KD (pH 5.5)/KD (pH 7.4) (human IL-6 (Toray) [11]): 10.3 | Kd (human IL-6 (Toray) [12]): 4.52 nM | koff (human IL-6 (Toray) [12]): 0.00926 s⁻¹ | kon (human IL-6 (Toray) [12]): 2.05e+06 M⁻¹ s⁻¹ | Kd (human IL-6 (Toray) [13]): 0.438 nM | koff (human IL-6 (Toray) [13]): 0.00471 s⁻¹ | kon (human IL-6 (Toray) [13]): 1.07e+07 M⁻¹ s⁻¹ | pH-dependent binding ability relative to WT (human IL-6 (Toray) [14]): > 10 fold
